B1: Auxin-responsive protein IAA12 (Arabidopsis thaliana (Mouse-ear cress)), Q38830 (parent)
chain: MRGVSELEVGKSNLPAESELELGLGLSLGGGAWKERGRILTAKDFPSVGSKRSAESSSHQGASPPRSSQVVGWPPIGLHRMNSLVNNQAMKAARAEEGDGEKKVVKNDELKDVSMKVNPKVQGLGFVKVNMDGVGIGRKVDMRAHSSYENLAQTLEEMFFGMTGTTCREKVKPLRLLDGSSDFVLTYEDKEGDWMLVGDVPWRMFINSVKRLRIMGTSEASGLAPRRQEQKDRQRNNPV
partner: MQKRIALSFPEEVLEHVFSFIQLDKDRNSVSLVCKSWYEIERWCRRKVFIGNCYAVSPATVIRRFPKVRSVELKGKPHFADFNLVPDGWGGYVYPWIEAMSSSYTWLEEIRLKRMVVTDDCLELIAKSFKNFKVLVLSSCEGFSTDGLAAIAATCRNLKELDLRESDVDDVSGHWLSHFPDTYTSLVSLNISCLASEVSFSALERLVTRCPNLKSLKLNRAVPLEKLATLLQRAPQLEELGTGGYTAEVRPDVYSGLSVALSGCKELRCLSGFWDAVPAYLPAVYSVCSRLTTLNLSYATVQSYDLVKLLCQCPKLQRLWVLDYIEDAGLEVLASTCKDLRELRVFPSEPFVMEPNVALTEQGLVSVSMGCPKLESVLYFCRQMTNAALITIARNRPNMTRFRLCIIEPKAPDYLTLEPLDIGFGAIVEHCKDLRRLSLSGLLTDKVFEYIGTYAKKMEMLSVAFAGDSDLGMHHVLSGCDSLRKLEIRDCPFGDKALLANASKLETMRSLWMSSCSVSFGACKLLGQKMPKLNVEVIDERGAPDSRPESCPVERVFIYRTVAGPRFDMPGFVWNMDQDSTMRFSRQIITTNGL
B2: Auxin-responsive protein IAA12 (Arabidopsis thaliana (Mouse-ear cress)), Q38830 (parent)
chain: B1 chain
partner: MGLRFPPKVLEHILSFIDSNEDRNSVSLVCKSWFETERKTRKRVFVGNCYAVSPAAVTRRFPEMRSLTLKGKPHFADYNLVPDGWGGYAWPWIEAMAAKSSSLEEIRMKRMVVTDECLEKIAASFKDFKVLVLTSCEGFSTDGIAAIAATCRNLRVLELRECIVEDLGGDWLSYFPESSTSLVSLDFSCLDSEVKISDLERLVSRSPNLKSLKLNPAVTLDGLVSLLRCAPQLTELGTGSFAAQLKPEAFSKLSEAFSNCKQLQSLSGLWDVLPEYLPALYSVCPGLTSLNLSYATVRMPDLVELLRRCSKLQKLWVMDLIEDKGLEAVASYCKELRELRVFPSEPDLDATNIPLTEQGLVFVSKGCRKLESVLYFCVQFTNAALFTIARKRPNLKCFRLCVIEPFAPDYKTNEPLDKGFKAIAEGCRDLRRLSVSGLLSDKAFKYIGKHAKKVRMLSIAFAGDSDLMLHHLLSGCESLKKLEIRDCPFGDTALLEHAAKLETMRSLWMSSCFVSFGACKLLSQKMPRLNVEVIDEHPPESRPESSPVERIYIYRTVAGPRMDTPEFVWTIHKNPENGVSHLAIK
B3: Auxin-responsive protein IAA12 (Arabidopsis thaliana (Mouse-ear cress)), Q38830 (parent)
chain: B1 chain
partner: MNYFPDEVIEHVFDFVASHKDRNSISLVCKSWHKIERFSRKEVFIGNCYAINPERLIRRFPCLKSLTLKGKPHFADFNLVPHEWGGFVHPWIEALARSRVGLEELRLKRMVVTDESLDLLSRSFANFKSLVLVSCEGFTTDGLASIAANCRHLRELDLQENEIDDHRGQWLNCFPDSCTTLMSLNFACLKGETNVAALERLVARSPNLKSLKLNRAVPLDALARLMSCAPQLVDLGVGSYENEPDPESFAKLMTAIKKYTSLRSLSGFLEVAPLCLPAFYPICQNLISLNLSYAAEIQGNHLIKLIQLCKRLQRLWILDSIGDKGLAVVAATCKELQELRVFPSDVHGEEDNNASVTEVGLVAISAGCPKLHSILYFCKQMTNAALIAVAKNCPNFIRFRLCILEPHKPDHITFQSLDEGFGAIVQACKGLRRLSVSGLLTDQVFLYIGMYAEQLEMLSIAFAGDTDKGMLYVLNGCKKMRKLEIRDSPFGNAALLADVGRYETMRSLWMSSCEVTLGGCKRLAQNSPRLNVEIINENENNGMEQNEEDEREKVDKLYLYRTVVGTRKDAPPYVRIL

Variants of B1 are the subject of one experiment. The settings on record: with tir1_arath TIR1, Q570C0.
For MRGVSELEVGKSNLPAESELELGLGLSLGGGAWKERGRILTAKDFPSVGSKRSAESSSHQGASPPRSSQVVGWSPIGLHRMNSLVNNQAMKAARAEEGDGEKKVVKNDELKDVSMKVNPKVQGLGFVKVNMDGVGIGRKVDMRAHSSYENLAQTLEEMFFGMTGTTCREKVKPLRLLDGSSDFVLTYEDKEGDWMLVGDVPWRMFINSVKRLRIMGTSEASGLAPRRQEQKDRQRNNPV [P74S], the “effect of a mutation on the interaction” value was “decreasing interaction”.

The variants in the next experiment derive from B2. The settings on record: with grh1_arath GRH1, Q9ZR12.
Regarding MRGVSELEVGKSNLPAESELELGLGLSLGGGAWKERGRILTAKDFPSVGSKRSAESSSHQGASPPRSSQVVGWSPIGLHRMNSLVNNQAMKAARAEEGDGEKKVVKNDELKDVSMKVNPKVQGLGFVKVNMDGVGIGRKVDMRAHSSYENLAQTLEEMFFGMTGTTCREKVKPLRLLDGSSDFVLTYEDKEGDWMLVGDVPWRMFINSVKRLRIMGTSEASGLAPRRQEQKDRQRNNPV [P74S], the “effect of a mutation on the interaction” value was “decreasing interaction”.

A further experiment covers variants of B3. The settings on record: with afb3_arath AFB3, Q9LPW7.
For the variant MRGVSELEVGKSNLPAESELELGLGLSLGGGAWKERGRILTAKDFPSVGSKRSAESSSHQGASPPRSSQVVGWSPIGLHRMNSLVNNQAMKAARAEEGDGEKKVVKNDELKDVSMKVNPKVQGLGFVKVNMDGVGIGRKVDMRAHSSYENLAQTLEEMFFGMTGTTCREKVKPLRLLDGSSDFVLTYEDKEGDWMLVGDVPWRMFINSVKRLRIMGTSEASGLAPRRQEQKDRQRNNPV [P74S], the “effect of a mutation on the interaction” value was “decreasing interaction”.

For the origin of these results see IntAct's records for PubMed 15992545.
